According to patent US7816094B2, “Method for quantitative analysis of interactions between HIF-1alpha C-terminal peptides and CBP or p300 proteins and method of screening inhibitors using the same” (Korea Institute of Science and Technology, priority 2006, dated 2010):
Ends that are not written are not given here. * marks the point of attachment. FITC = O=C1OC2(c3ccc(O)cc3Oc3cc(O)ccc32)c2ccc(NC(=S)*)cc21; Ahx = NCCCCCC(=O)O

How the values were obtained:
[1] = target: T1, GST-p300 (truncated p300, amino acids 1-221) (Homo sapiens, UniProt Q09472); assay: Fluorescence polarization (FP)-based binding assay of fluorescein-labeled HIF-1α peptides with GST-p300; details: increasing GST-p300 concentrations; FIG. 2B, 3B, 4C, 5B, 5D
T1 construct: made in house; host or cells: E. coli BL21
Method: (§1) The binding affinity and features between the HIF-1α peptides and CBP or p300 proteins were analyzed by measuring the fluorescence polarization (FP) values that were changed by the formation of a protein-ligand complex through the interaction between the CBP or p300 proteins and the synthesized peptides that were manufactured by the method as described in above Example 1. The FP values were measured with a fluorescence spectrometer (Perkin-Elmer), which was set to have a slit width of 5 nm and a total integration time of 5 seconds. EBC Buffer (50 mM Tris and 120 mM NaCl; pH 8.0, 0.25% Nonidet P (NP)-40) was used for the binding reaction.
(§2) Because the cysteine-/histidine-rich 1(CH1) domain of CBP or p300 proteins that binds the C-terminal transactivation domain (C-TAD) of HIF-1α contains the Zn^2+-coordinating centers, an embodiment of the present invention first tested for the importance of Zn^2+ added in the preparation of CBP or p300 proteins by cell lysis and protein elution on their binding to the HIF-1α-derived peptides, wherein the GST-CBP or GST-p300 proteins containing the CH1 domain were prepared by cell lysis and protein elution in the presence or absence of ZnSO4. 800 nM of CBP or p300 proteins in the EBC Buffer prepared from above Example 1 were mixed with 100 nM of F-HIF-1α(776-826, SEQ ID NO: 3) and F-HIF-1α(786-826, SEQ ID NO: 4) peptides at 25° C., respectively. Then, the FP (fluorescence polarization) values were measured.
To compare interactions between the four peptides derived from different regions in HIF-1α C-TAD with CBP or p300, these fluorescein-labeled HIF-1α peptides were mixed with CBP proteins at varying concentrations from 0 to 3000 nM under the conditions of above Example 2-2, and then the FP (fluorescence polarization) values were measured (FIG. 2A).
The dissociation constants of these two peptides were determined to be 157.3 nM for HIF-1α(776-826, SEQ ID NO: 3) and 180.1 nM for HIF-1α(786-826, SEQ ID NO: 4), respectively.

[2] = target: T2, GST-CBP (truncated human CBP, amino acids 1-450) (Homo sapiens, UniProt Q92793); assay: Fluorescence polarization (FP)-based binding assay of fluorescein-labeled HIF-1α peptides with GST-CBP; details: GST-CBP 0 to 3000 nM; FIG. 2A
T2 construct: made in house; host or cells: E. coli BL21
Method: as §1
as §2, with “800 nM of CBP or p300 proteins in the EBC Buffer prepared from above Example 1 were mixed with 100 nM of F-HIF-1α(776-826, SEQ ID NO: 3) and F-HIF-1α(786-826, SEQ ID NO: 4) peptides at 25° C., respectively.” left out, “measured. […]” for “measured.”

[3] = target: T3, GST-p300 / F-HIF-1α-(786-826, SEQ ID NO: 4) interaction (Homo sapiens, UniProt Q09472); assay: Competitive inhibition analysis of the FP-based binding assay (F-HIF-1α-p300 interaction); details: compared with wild-type peptide; FIG. 6
T3 construct: made in house; host or cells: E. coli BL21 for GST-p300; the tracer peptide was synthesized by Anygen
Method: To compare the importance of Thr-796, Cys-800, and Asn-803 residues in the HIF-1α peptide on its p300 binding activity, an embodiment of the present invention performed competitive inhibition analyses of the FP-based binding assays using single mutant peptides. The mutant peptides were prepared with the method as described below.
Namely, human HIF-1α-(786-826, SEQ ID NO: 4) and its single mutation products prepared by PCR were subcloned into pGEX-2T-1 (Amersham Biosciences), and overexpressed in E. coli BL21 (DE3). After the GST fusion proteins were purified using glutathione-SEPHAROSE (Amersham Biosciences), followed by GST removal with thrombin treatment, the resulting peptides were purified using reverse-phase HPLC and confirmed by MALDI-TOF mass spectrometry. The results of competitive inhibition for HIF-1α-(786-826, SEQ ID NO: 4) peptides with point mutations on the HIF-1α-p300 interaction are depicted in FIG. 6.

T1 sequence (Q09472 300-520): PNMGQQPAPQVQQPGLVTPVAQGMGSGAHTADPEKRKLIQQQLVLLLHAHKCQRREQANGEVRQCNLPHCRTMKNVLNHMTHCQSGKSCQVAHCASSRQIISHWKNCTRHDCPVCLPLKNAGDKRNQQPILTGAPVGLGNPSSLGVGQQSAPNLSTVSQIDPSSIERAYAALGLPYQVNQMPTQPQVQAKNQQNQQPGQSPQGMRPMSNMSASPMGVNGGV
T3 sequence (Q09472 300-520): as above
T2 sequence (Q92793 1-450): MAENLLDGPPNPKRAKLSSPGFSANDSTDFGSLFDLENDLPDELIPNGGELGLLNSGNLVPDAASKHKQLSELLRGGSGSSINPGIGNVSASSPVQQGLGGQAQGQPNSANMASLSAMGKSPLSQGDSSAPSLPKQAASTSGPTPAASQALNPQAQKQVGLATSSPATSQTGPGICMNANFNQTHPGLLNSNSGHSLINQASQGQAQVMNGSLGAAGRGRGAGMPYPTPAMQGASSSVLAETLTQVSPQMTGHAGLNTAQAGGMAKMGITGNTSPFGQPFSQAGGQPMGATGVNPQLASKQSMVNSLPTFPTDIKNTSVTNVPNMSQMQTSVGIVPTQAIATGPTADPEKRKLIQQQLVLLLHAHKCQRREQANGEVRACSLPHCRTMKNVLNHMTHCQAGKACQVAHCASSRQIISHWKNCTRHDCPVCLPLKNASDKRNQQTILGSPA

Substance | FP values (change) upon mixing with GST-p300 [1] | FP values (change) upon mixing with GST-CBP [2] | competitive inhibition of F-HIF-1α-(786-826, SEQ ID NO: 4) binding to p300 [3]
peptide treated with N or H kinase fractions: F-HIF-1α (786-826, SEQ ID NO: 4) phosphorylated by normoxic or hypoxic HeLa kinase fractions, purified by reverse-phase HPLC | FP increase upon incubation with GST-p300, similar to the untreated peptide |  | 
FITC-ACA-SDLACRLLGQSMDESGLPQLTSYDCEVNAPIQGSRNLLQ ({FITC-Ahx}-SDLACRLLGQSMDESGLPQLTSYDCEVNAPIQGSRNLLQ; cysteine pairing not given here) [HIF-1α(776-814, SEQ ID NO: 5), fluorescein (FITC)-labeled HIF-1α C-terminal peptide, residues 776-814, aminocaproic acid linker] | no increase upon incubation with GST-p300 | no increase up to 3000 nM of GST-CBP | 
FITC-ACA-DESGLPQLTSYDCEVNAPIQGSRNLLQGEELLRAL ({FITC-Ahx}-DESGLPQLTSYDCEVNAPIQGSRNLLQGEELLRAL) [HIF-1α(788-822, SEQ ID NO: 6), fluorescein (FITC)-labeled HIF-1α C-terminal peptide, residues 788-822, aminocaproic acid linker] | increased much less than those of the above two peptides | increased much less than those of the above two peptides | 
hydroxylated peptide: F-HIF-1α (786-826, SEQ ID NO: 4) hydroxylated on asparagine by recombinant His-FIH-1, purified by reverse-phase HPLC | only slightly increased with increasing p300 concentrations |  | 
N803A: unlabeled HIF-1α (786-826) peptide with single mutation N803A (SMDESGLPQLTSYDCEVAAPIQGSRNLLQGEELLRALDQVN; Amino acid sequence for HIF-1a(786-826)) |  |  | to a little lesser degrees than the wild-type
S-nitrosylated F-HIF-1α (786-826, SEQ ID NO: 4): F-HIF-1α (786-826, SEQ ID NO: 4) treated with SNAP, S-nitrosylated on Cys-800, purified by reverse-phase HPLC | only minimal increase in FP with increasing p300 concentrations |  | 
T796D: unlabeled HIF-1α (786-826) peptide with single mutation T796D (SMDESGLPQLDSYDCEVNAPIQGSRNLLQGEELLRALDQVN; Amino acid sequence for HIF-1a(786-826)) |  |  | to a little lesser degrees than the wild-type
